Assay results taken from US20210340217A1, “NOVEL PEPTIDES AND COMBINATION OF PEPTIDES FOR USE IN IMMUNOTHERAPY AGAINST OVARIAN CANCER AND OTHER CANCERS” (Immatics Biotechnologies GmbH, priority 2017, published 2021).

biological target: HLA-B*07:02 (Homo sapiens, UniProt P01889); assay: MHC binding assay (UV-ligand exchange, beta2m ELISA); settings: peptide exchange yield
Source text: (§1) Candidate peptides for T cell based therapies according to the present invention were further tested for their MHC binding capacity (affinity). The individual peptide-MHC complexes were produced by UV-ligand exchange, where a UV-sensitive peptide is cleaved upon UV-irradiation, and exchanged with the peptide of interest as analyzed. Only peptide candidates that can effectively bind and stabilize the peptide-receptive MHC molecules prevent dissociation of the MHC complexes. To determine the yield of the exchange reaction, an ELISA was performed based on the detection of the light chain (β2m) of stabilized MHC complexes. The assay was performed as generally described in Rodenko et al. (Rodenko et al., 2006).
(§2) 96 well MAXISorp plates (NUNC) were coated over night with 2 ug/ml streptavidin in PBS at room temperature, washed 4× and blocked for 1 h at 37° C. in 2% BSA containing blocking buffer. Refolded HLA-A*02:01/MLA-001 monomers served as standards, covering the range of 15-500 ng/ml. Peptide-MHC monomers of the UV-exchange reaction were diluted 100-fold in blocking buffer. Samples were incubated for 1 h at 37° C., washed four times, incubated with 2 ug/ml HRP conjugated anti-β2m for 1h at 37° C., washed again and detected with TMB solution that is stopped with […]. Absorption was measured at 450 nm. Candidate peptides that show a high exchange yield (preferably higher than 50%, most preferred higher than 75%) are generally preferred for a generation and production of antibodies or fragments thereof, and/or T cell receptors or fragments thereof, as they show sufficient avidity to the MHC molecules and prevent dissociation of the MHC complexes.

Substance | Peptide exchange
320 (FPMSPVTSV; listed as Homo sapiens) [compound 320] | “+++” (>50 = +++)
333 (FPHSEMTTVM; listed as Homo sapiens) [compound 333] | “+++” (>50 = +++)
379 (GPFPLVYVL; listed as Homo sapiens) [compound 379] | “+++” (>50 = +++)
148 (KPYGGSGPL; listed as Homo sapiens) [compound 148] | “+++” (>50 = +++)
381 (LPEQTPLAF; listed as Homo sapiens) [compound 381] | “++” (>20% = ++)
141 (SPMTSLLTSGL; listed as Homo sapiens) [compound 141] | “+++” (>50 = +++)
118 (SPASRSISL; listed as Homo sapiens) [compound 118] | “+++” (>50 = +++)
342 (LPLGTSMTF; listed as Homo sapiens) [compound 342] | “+++” (>50 = +++)
348 (MPNSAIPFSM; listed as Homo sapiens) [compound 348] | “+++” (>50 = +++)
137 (SPGATSRGTL; listed as Homo sapiens) [compound 137] | “+++” (>50 = +++)
312 (LPYFREFSM; listed as Homo sapiens) [compound 312] | “+++” (>50 = +++)
358 (SPSPVTSTL; listed as Homo sapiens) [compound 358] | “+++” (>50 = +++)
344 (LPTQTTSSL; listed as Homo sapiens) [compound 344] | “+++” (>50 = +++)
325 (GPRNAQRVL; listed as Homo sapiens) [compound 325] | “+++” (>50 = +++)
384 (YPGLRGSPM; listed as Homo sapiens) [compound 384] | “++++” (>75% = ++++)
326 (VPSEIDAAF; listed as Homo sapiens) [compound 326] | “++” (>20% = ++)
134 (RPIVPGPLL; listed as Homo sapiens) [compound 134] | “+++” (>50 = +++)
302 (RVEEVRALL; listed as Homo sapiens) [compound 302] | “+++” (>50 = +++)
294 (YPLRGSSIF; listed as Homo sapiens) [compound 294] | “+++” (>50 = +++)
136 (SPFSAEEANSL; listed as Homo sapiens) [compound 136] | “+++” (>50 = +++)
131 (APTEDLKAL; listed as Homo sapiens) [compound 131] | “+++” (>50 = +++)
382 (SPMHDRWTF; listed as Homo sapiens) [compound 382] | “+++” (>50 = +++)
33 (SPTFHLTL; listed as Homo sapiens) [compound 33] | “+++” (>50 = +++)

Substance | Peptide exchange
133 (MPNLPSTTSL; listed as Homo sapiens) [compound 133] | “+++” (>50 = +++)
388 (SPAPLKLSRTPA; listed as Homo sapiens) [compound 388] | “++” (>20% = ++)
318 (FPNRLNLEA; listed as Homo sapiens) [compound 318] | “+++” (>50 = +++)
391 (APSTPRITTF; listed as Homo sapiens) [compound 391] | “+++” (>50 = +++)
350 (NPSSTTTEF; listed as Homo sapiens) [compound 350] | “+++” (>50 = +++)
124 (LPSDSHFKITF; listed as Homo sapiens) [compound 124] | “+++” (>50 = +++)
330 (FPFVTGSTEM; listed as Homo sapiens) [compound 330] | “++” (>20% = ++)
378 (RPRSPAGQVAA; listed as Homo sapiens) [compound 378] | “+++” (>50 = +++)
380 (IPTYGRTF; listed as Homo sapiens) [compound 380] | “+++” (>50 = +++)
392 (KPIESTLVA; listed as Homo sapiens) [compound 392] | “+++” (>50 = +++)
322 (SPDPSKHLL; listed as Homo sapiens) [compound 322] | “++” (>20% = ++)
367 (TPSVVTEGF; listed as Homo sapiens) [compound 367] | “++” (>20% = ++)
132 (IPGPAQSTI; listed as Homo sapiens) [compound 132] | “++” (>20% = ++)
345 (LPTSESLVSF; listed as Homo sapiens) [compound 345] | “++” (>20% = ++)
327 (SPLPVTSLI; listed as Homo sapiens) [compound 327] | “+++” (>50 = +++)
40 (KPGTSYRVTL; listed as Homo sapiens) [compound 40] | “+++” (>50 = +++)
127 (APRAGSQVV; listed as Homo sapiens) [compound 127] | “+++” (>50 = +++)
315 (SPRENFPDTL; listed as Homo sapiens) [compound 315] | “+++” (>50 = +++)
363 (TAKTPDATF; listed as Homo sapiens) [compound 363] | “++” (>20% = ++)
301 (SPRRSPRISF; listed as Homo sapiens) [compound 301] | “++” (>20% = ++)
319 (SPAEPSVYATL; listed as Homo sapiens) [compound 319] | “++++” (>75% = ++++)
364 (TPLATTQRF; listed as Homo sapiens) [compound 364] | “++” (>20% = ++)
145 (SPSSPMSTF; listed as Homo sapiens) [compound 145] | “++” (>20% = ++)

Substance | Peptide exchange
361 (SPTHVTQSL; listed as Homo sapiens) [compound 361] | “+++” (>50 = +++)
387 (APLKLSRTPA; listed as Homo sapiens) [compound 387] | “+++” (>50 = +++)
119 (APLPRPGAVL; listed as Homo sapiens) [compound 119] | “+++” (>50 = +++)
143 (SPAMTSTSF; listed as Homo sapiens) [compound 143] | “++” (>20% = ++)
347 (MPLTTGSQGM; listed as Homo sapiens) [compound 347] | “++” (>20% = ++)
352 (SPAETSTNM; listed as Homo sapiens) [compound 352] | “+++” (>50 = +++)
41 (RVRSRISNL; listed as Homo sapiens) [compound 41] | “+++” (>50 = +++)
338 (HVTKTQATF; listed as Homo sapiens) [compound 338] | “++” (>20% = ++)
354 (SPLPVTSLL; listed as Homo sapiens) [compound 354] | “+++” (>50 = +++)
305 (TPWAESSTKF; listed as Homo sapiens) [compound 305] | “++” (>20% = ++)
298 (YPTEHVQF; listed as Homo sapiens) [compound 298] | “++” (>20% = ++)
353 (SPAMTTPSL; listed as Homo sapiens) [compound 353] | “+++” (>50 = +++)
375 (AAASPLLLL; listed as Homo sapiens) [compound 375] | “++” (>20% = ++)
129 (APRPASSL; listed as Homo sapiens) [compound 129] | “+++” (>50 = +++)
304 (LPRPGAVL; listed as Homo sapiens) [compound 304] | “+++” (>50 = +++)
335 (HPDPVGPGL; listed as Homo sapiens) [compound 335] | “++” (>20% = ++)
390 (NPDLRRNVL; listed as Homo sapiens) [compound 390] | “+++” (>50 = +++)
331 (FPHPEMTTSM; listed as Homo sapiens) [compound 331] | “+++” (>50 = +++)
365 (TPLATTQRFTY; listed as Homo sapiens) [compound 365] | “++” (>20% = ++)
376 (RPRSPAGQVA; listed as Homo sapiens) [compound 376] | “+++” (>50 = +++)
39 (RPAPFEVVF; listed as Homo sapiens) [compound 39] | “+++” (>50 = +++)

biological target: HLA-B*44:02 (Homo sapiens, UniProt P01889, A223V/A65T/A93T/A95T/D201E/D98Y/E176V/E187L/E204Q/E69K/G107R/H137Y/K202T/L105A/L119I/N104T/N87E/Q56L/Q94N/R106L/R155S/R180D/S101N/S121R/S35A/S48T/T118I/V36M/W191S/Y140D/Y91S); assay: as above; settings: peptide exchange yield
Source text: as §1, §2

Substance | Peptide exchange
194 (KEVDPTSHSY; listed as Homo sapiens) [compound 194] | “++” (>20% = ++)
422 (SETTFSLIF; listed as Homo sapiens) [compound 422] | “+++” (>50 = +++)
429 (REKFIASVI; listed as Homo sapiens) [compound 429] | “++” (>20% = ++)
208 (TEVSRTEAI; listed as Homo sapiens) [compound 208] | “++” (>20% = ++)
